Data taken from patent US20180291110A1 (Hoffmann-La Roche, published 2018).
Where a chain is given by its changes, count along the chain named.

B1: 2/99 VH0(rb)/VL0(rb) (antibody, V domains shown)
VH: QSMEESGGRLVTPGTPLTLTCTVSGFSLSSYAMSWVRQAPGKGLEWIGYIWSGGSTDYASWAKGRFTISKTSTTVDLKITSPTTEDTATYFCARRYGTSYPDYGDANGFDPWGPGTLVTVSS
VL: AYDMTQTPASVEVAVGGTVTIKCQASQSISSYLSWYQQKPGQRPKLLIYRASTLASGVSSRFKGSGSGTQFTLTISGVECADAATYYCQQCYSSSNVDNTFGGGTEVVVKR
notes: 0 (rb) read as the rabbit parental domains of clone 2/99
B2: 2/99 VH1/VL1 (antibody, V domains shown)
VH: VQLVETGGGLIQPGGSLRLSCAASGFSLSSYAMSWVRQAPGKGLEWVGYIWSGGSTDYADSVKGRFTISRDNSKNTLYLQMNSLRAEDTAVYYCARRYGTSYPDYGDANGFDPWGQGTLVTVSS
VL: DIQMTQSPSSLSASVGDRVTITCRASQSISSYLNWYQQKPGKAPKLLIYRASSLQSGVPSRFSGSGSGTDFTLTISSLQPEDFATYYCQQSYSSSNVDNTFGGGTKVEIK
B3: 2/99 VH5/VL1 (antibody, V domains shown)
VH: B2 VH with V1Q, Q2S, L3M, V4E, Q116P
VL: B2 VL
B4: 2/99 VH18/VL2 (antibody, V domains shown)
VH: QVQLQESGPGLVKPSQTLSLTCTVSGFSLSSYAMSWIRQHPGKGLEWIGYIWSGGSTDYAPSLKSRVTISVDTSKNQFSLKLSSVTAADTAVYYCARRYGTSYPDYGDANGFDPWGQGTLVTVSS
VL: B2 VL with S53T, Q55A
B5: 2/99 VH13/VL2 (antibody, V domains shown)
VH: B4 VH with Q16E, H40P, A60N, F78V
VL: B2 VL with S53T, Q55A
B6: 2/99 VH19/VL1 (antibody, V domains shown)
VH: QSMQESGPGLVKPSQTLSLTCTVSGFSLSSYAMSWIRQHPGKGLEWIGYIWSGGSTDYAPSLKSRVTISVDTSKNQFSLKLSSVTAADTAVYYCARRYGTSYPDYGDANGFDPWGQGTLVTVSS
VL: B2 VL
B7: 2/99 VH9/VL1 (antibody, V domains shown)
VH: B2 VH with V1Q, V4L, T6S, I11V, S27T, L28F, R96K
VL: B2 VL
B8: 2/99 VH15/VL2 (antibody, V domains shown)
VH: B6 VH with S2Q, M3L, Q15E, I36V, H39P, A59N, F77V
VL: B2 VL with S53T, Q55A
B9: 2/99 VH11/VL1 (antibody, V domains shown)
VH: B2 VH with V1Q, V4L, T6S, I11V
VL: B2 VL
B10: 2/99 VH2/VL1 (antibody, V domains shown)
VH: EVQLVETGGGLIQPGGSLRLSCAASGFSLSSYAMSWVRQAPGKGLEWVGYIWSGGSTDYADSVKGRFTISRDNSKNTLYLQMNSLRAEDTAVYYCARRYGTSYPDYGDANGFDPWGQGTLVTVSS
VL: B2 VL
B11: 2/99 VH8/VL1 (antibody, V domains shown)
VH: QQLVETGGGLIQPGGSLRLSCAASGFSLSSYAMSWVRQAPGKGLEWIGYIWSGGSTDYASWAKGRFTISKTSTTLYLQMNSLRAEDTAVYYCARRYGTSYPDYGDANGFDPWGQGTLVTVSS
VL: B2 VL
B12: 2/99 VH22/VL1 (antibody, V domains shown)
VH: B6 VH with I36V, P60S, S61W, L62A, F77V
VL: B2 VL
B13: 2/99 VH23-DANG/VL1 (antibody, V domains shown)
VH: QSMQESGPGLVKPSQTLSLTCTVSGFSLSSYAMSWIRQHPGKGLEWIGYIWSGGSTDYASWAKSRVTISKTSTTVSLKLSSVTAADTAVYYCARRYGTSYPDYGDANGFDPWGQGTLVTVSS
VL: B2 VL
B14: 2/99 VH6/VL2 (antibody, V domains shown)
VH: B2 VH with V1Q, V47I
VL: B2 VL with S53T, Q55A
B15: 2/99 VH15/VL1 (antibody, V domains shown)
VH: B6 VH with S2Q, M3L, Q15E, I36V, H39P, A59N, F77V
VL: B2 VL
B16: 2/99 VH19/VL2 (antibody, V domains shown)
VH: B6 VH
VL: B2 VL with S53T, Q55A
B17: 2/99 VH12/VL1 (antibody, V domains shown)
VH: B4 VH with Q16E, H40P, A60N
VL: B2 VL
B18: 2/99 VH17/VL2 (antibody, V domains shown)
VH: B6 VH with S2Q, M3L, Q15E, I36V, H39P, A59N, V70K, F77V, Q116P
VL: B2 VL with S53T, Q55A
B19: 2/99 VH20/VL1 (antibody, V domains shown)
VH: B6 VH with F77V
VL: B2 VL
B20: 2/99 VH7/VL1 (antibody, V domains shown)
VH: B2 VH with V1Q, V47I, D60S, S61W, V62A
VL: B2 VL
B21: 2/99 VH6/VL1 (antibody, V domains shown)
VH: B2 VH with V1Q, V47I
VL: B2 VL
B22: 2/99 VH16/VL1 (antibody, V domains shown)
VH: B6 VH with S2Q, M3L, Q15E, I36V, H39P, A59N, F77V, Q116P
VL: B2 VL
B23: 2/99 VH11/VL2 (antibody, V domains shown)
VH: B2 VH with V1Q, V4L, T6S, I11V
VL: B2 VL with S53T, Q55A
B24: 2/99 VH16/VL2 (antibody, V domains shown)
VH: B6 VH with S2Q, M3L, Q15E, I36V, H39P, A59N, F77V, Q116P
VL: B2 VL with S53T, Q55A
B25: 2/99 VH21/VL1 (antibody, V domains shown)
VH: B6 VH with P60S, S61W, L62A, F77V
VL: B2 VL
B26: 2/99 VH8/VL2 (antibody, V domains shown)
VH: B11 VH
VL: B2 VL with S53T, Q55A
B27: 2/99 VH2/VL2 (antibody, V domains shown)
VH: B10 VH
VL: B2 VL with S53T, Q55A
B28: 2/99 VH20/VL2 (antibody, V domains shown)
VH: B6 VH with F77V
VL: B2 VL with S53T, Q55A
B29: 2/99 VH17/VL1 (antibody, V domains shown)
VH: B6 VH with S2Q, M3L, Q15E, I36V, H39P, A59N, V70K, F77V, Q116P
VL: B2 VL
B30: 2/99 VH5/VL2 (antibody, V domains shown)
VH: B2 VH with V1Q, Q2S, L3M, V4E, Q116P
VL: B2 VL with S53T, Q55A
B31: 2/99 VH1/VL2 (antibody, V domains shown)
VH: B2 VH
VL: B2 VL with S53T, Q55A
B32: 2/99 VH7/VL2 (antibody, V domains shown)
VH: B2 VH with V1Q, V47I, D60S, S61W, V62A
VL: B2 VL with S53T, Q55A
B33: 2/99 VH13/VL1 (antibody, V domains shown)
VH: B4 VH with Q16E, H40P, A60N, F78V
VL: B2 VL
B34: 2/99 VH18/VL1 (antibody, V domains shown)
VH: B4 VH
VL: B2 VL
B35: 2/99 VH12/VL2 (antibody, V domains shown)
VH: B4 VH with Q16E, H40P, A60N
VL: B2 VL with S53T, Q55A

molecular target: T1, human transferrin receptor (recombinant, for surface plasmon resonance) (human, UniProt P02786 89-760); assay: SPR 25C
T1 construct: also called huTfR; human transferrin receptor-biotinylated
T1 sequence (P02786 89-760 limits assumed): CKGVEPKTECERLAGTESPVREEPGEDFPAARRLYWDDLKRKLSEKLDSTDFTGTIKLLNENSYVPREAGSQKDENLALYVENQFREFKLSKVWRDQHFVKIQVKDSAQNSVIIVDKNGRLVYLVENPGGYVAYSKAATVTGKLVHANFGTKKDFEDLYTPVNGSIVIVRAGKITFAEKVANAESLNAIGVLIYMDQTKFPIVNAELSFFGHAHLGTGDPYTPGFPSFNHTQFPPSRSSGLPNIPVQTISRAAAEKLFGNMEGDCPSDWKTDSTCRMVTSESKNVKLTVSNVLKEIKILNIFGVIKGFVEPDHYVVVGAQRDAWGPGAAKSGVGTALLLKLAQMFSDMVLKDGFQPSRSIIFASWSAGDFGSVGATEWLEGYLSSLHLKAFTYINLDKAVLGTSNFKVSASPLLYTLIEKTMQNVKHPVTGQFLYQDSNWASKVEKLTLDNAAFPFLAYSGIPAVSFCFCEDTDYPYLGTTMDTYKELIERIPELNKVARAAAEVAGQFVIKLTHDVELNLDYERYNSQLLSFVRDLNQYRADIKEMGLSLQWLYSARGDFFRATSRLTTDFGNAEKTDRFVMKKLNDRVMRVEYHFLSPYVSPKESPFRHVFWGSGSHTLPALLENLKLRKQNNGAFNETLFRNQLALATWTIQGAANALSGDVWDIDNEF

koff [s⁻¹] | Binder
0.000434 | B1
0.001 | B2
0.001 | B3
0.00489 | B4
0.00246 | B5
0.001 | B6
0.00694 | B7
0.00216 | B8
0.001 | B9
0.001 | B10
0.00319 | B11
0.00578 | B12
0.0028 | B13
0.00187 | B14
0.00772 | B15
0.00769 | B16
0.001 | B17
0.00105 | B18

koff [s⁻¹] | Binder
0.001 | B19
0.00752 | B20
0.001 | B21
0.00771 | B22
0.00385 | B23
0.00197 | B24
0.00771 | B25
0.00101 | B26
0.00275 | B27
0.00525 | B28
0.00433 | B29
0.00241 | B30
0.00286 | B31
0.00131 | B32
0.001 | B33
0.001 | B34
0.00635 | B35
